Molecular target: F HIV-clamp (respiratory syncytial virus)
Assay: capture ELISA, 101F coat and MPE8 detection; antigen yield estimate, control

Work on MPE8 (antibody) yielded a yield by MPE8 binding ELISA of 10 mg/L.
